# Laboratory results from patent US20150099269, “Hybridization- Independent Labeling Of Repetitive DNA Sequence In Human Chromsomes” (University of Massachusetts, published 2015).
# T1: TALE-TelR15 Green-Lysine labelled, no FP (artificial)
# T1 chain: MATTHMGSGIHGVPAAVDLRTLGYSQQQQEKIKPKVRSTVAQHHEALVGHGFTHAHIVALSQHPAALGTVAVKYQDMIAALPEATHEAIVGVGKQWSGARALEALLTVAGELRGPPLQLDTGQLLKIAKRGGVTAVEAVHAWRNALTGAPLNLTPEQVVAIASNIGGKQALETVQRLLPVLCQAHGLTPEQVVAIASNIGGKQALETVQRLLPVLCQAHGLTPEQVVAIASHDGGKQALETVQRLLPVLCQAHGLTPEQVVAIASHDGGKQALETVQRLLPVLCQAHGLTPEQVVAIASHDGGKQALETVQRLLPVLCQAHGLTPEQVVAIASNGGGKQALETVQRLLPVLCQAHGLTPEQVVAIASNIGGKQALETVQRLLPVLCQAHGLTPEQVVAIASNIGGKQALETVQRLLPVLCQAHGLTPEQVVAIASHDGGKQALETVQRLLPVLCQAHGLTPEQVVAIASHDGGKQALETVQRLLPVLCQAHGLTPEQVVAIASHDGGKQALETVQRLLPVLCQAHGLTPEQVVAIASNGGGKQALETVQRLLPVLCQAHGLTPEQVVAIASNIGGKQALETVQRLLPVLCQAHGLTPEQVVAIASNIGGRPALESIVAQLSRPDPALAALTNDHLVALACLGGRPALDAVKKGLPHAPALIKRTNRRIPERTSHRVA
# T2: TALE-TelR15 (artificial)
# T2 chain: T1 chain
# B1: TelR15 target (dsDNA)
# DNA 1: TAACCCTAACCCTAA
# DNA 2: TTAGGGTTAGGGTTA
# How the values were obtained:
# [1] = biological target: T1, TALE-TelR15 Green-Lysine labelled, no FP; experiment: fixed U2OS cells, compared with the mCherry fusion; conditions: tags: internal lysines labelled with green dye (Promega), pET30a vector
# TALE-TelR15 = biological target: T2, TALE-TelR15; experiment: methanol-fixed, 2N HCl treated cells, room temperature; signal correlates with telomere length (HeLa 1.3 higher than HeLa S3); conditions: tags: fused sfGFP, mTagBFP2, mTFP1, YPet or mCherry (pT7CFE1-His vector)
# Protocol: Cells grown on coverslips were fixed in ice-cold methanol for 10 min at −20° C. All subsequent steps were carried out at room temperature. The fixed cells were incubated with 2N HCl for 5 min and then washed twice with PBS for 5 min each and then incubated with a given TALEColor probe as a 1:10 dilution from the coupled in vitro transcription-translation reactions mixtures for 30 min. The cells were then washed once with PBS for 5 min. Coverslips were mounted in Prolong Antifade (Molecular Probes, Eugene, Oreg.), and images were captured with the fluorescence microscopy system described above.
binder,measurement,setting,value
B1,binding result,[1],binds
same,binding result,TALE-TelR15,binds
